Publication PMC11655644, “Cardiocutaneous syndrome is caused by aggregation of iASPP mutants” (Cell Death Discovery, 2024)
Blank lines part the entries; values can stand above or below the molecule they belong to.

Legend:
[1] = biological target: iASPP CTD N813A Y814A double mutant (human) (UniProt Q8WUF5); experiment: ITC; VP-ITC, 12 °C, 25 steps of 10 µl; 450 µM iASPP CT peptides titrated to 30 µM purified ASPP CTDs; 25 mM HEPES pH 7.5, 150 mM NaCl, 500 µM TCEP
[2] = biological target: iASPP CTD WT (C-terminal domain, AA625-828) (human) (UniProt Q8WUF5); experiment: as above
[3] = biological target: T1, iASPP CTD WT (C-terminal domain, AA625-828) (human, UniProt Q8WUF5 625-828); experiment: thermal shift assay; 20 µM CTD with SYPRO Orange and 20 or 40 µM PP1α (AA311-330) peptide in assay buffer; 4 to 99 °C at 0.1 °C/s; settings: both partners purified
T1 construct: iASPP (encoded by PPP1R13L), C-terminal domain with four ankyrin repeats and an SH3 domain, AA625-828 (CTD starting from L625); also called iASPP WT CTD; source: E. coli BL21(DE3) Rosetta, purified (IMAC, TEV cleavage, reverse Ni, HiTrap Q, Superdex 75 SEC); not shown: His10, N-terminal, cleaved
T1 sequence (looked up): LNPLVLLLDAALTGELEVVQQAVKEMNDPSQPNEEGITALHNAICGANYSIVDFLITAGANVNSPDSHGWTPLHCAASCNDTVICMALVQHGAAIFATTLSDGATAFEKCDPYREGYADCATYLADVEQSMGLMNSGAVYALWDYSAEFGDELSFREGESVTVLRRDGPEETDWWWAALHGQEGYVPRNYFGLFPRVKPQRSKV

Kd [1]: 5000 nM | Kd [2]: 135 nM
Molecule: iASPP A620P peptide spanning the sequence around the mutation

Kd [1]: 5000 nM | Kd [2]: 743 nM
Molecule: iASPP WT peptide spanning the sequence around A620

B1: PP1α (AA311-330) peptide (peptide, UniProt P62136 311-330, looked up)
peptide: GLNPGGRPITPPRNSAKAKK
notes: PP1α (protein phosphatase 1 catalytic subunit alpha), peptide AA311-330; also called PP1α peptide
increase of the melting temperature with peptide [3]: 10 °C
